Experiment [1] has as its target T1, human FcRH1 (full-length, on SVT2 cells) (human, UniProt Q96LA6 17-429).
T1 construct: whole, on cells; also called SVT2-FcRH1
T1 sequence (looked up): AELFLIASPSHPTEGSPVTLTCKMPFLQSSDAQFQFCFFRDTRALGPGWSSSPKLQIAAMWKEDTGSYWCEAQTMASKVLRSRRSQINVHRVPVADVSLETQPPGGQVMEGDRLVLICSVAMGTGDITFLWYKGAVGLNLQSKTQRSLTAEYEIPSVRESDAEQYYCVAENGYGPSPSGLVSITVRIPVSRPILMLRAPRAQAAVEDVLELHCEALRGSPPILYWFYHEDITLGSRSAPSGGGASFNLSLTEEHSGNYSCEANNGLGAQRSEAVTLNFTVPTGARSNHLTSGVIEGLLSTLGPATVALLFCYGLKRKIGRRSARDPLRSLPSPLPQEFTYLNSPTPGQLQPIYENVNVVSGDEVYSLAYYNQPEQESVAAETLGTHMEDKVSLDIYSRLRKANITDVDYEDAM
Nature of the experiment: FACS, SVT2 cells.

Experiment [2] addresses T2, Human E11-TM-ICD (E11 domain, transmembrane domain, and cytoplasmic domains of human FcRH5, on SVT2 cells) (human, UniProt Q96RD9 745-977).
T2 construct: On cells
T2 sequence: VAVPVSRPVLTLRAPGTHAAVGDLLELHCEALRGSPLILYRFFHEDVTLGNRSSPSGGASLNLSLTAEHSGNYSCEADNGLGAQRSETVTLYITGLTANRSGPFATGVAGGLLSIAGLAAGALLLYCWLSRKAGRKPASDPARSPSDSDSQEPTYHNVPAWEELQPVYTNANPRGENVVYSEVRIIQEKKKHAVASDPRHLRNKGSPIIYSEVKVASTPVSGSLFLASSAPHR
Nature of the experiment: FACS, SVT2 cells.

The target in experiment [3] is T3, human FcRH3 (full-length, on SVT2 cells) (human, UniProt Q96P31 18-734).
T3 construct: whole, on cells; also called SVT2-FcRH3
T3 sequence (looked up): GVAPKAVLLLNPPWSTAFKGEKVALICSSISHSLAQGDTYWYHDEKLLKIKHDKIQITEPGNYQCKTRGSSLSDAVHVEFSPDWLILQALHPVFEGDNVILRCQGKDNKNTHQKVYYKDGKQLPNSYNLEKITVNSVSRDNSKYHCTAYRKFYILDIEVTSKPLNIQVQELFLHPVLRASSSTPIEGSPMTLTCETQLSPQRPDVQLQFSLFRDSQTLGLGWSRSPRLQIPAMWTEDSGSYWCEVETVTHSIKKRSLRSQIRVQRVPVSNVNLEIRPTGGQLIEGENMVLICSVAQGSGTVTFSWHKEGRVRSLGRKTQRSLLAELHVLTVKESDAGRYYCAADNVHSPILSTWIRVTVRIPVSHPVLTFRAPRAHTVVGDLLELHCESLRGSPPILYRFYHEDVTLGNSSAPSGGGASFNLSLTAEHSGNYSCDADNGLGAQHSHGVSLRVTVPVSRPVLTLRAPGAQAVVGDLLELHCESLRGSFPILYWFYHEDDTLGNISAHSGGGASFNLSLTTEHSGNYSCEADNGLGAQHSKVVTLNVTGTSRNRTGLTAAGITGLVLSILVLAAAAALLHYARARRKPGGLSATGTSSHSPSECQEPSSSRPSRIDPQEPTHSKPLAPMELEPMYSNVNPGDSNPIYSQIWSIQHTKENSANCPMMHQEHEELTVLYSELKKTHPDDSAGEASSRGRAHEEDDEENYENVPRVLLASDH
Nature of the experiment: FACS, SVT2 cells, 3 µg/ml. On the procedure:
(§1) Human FcRH5, cyno FcRH5, human FcRH1, FcRH2, FcRH3, and FcRH4 transfected mouse SVT2 cells were used to test binding and cross-reactivity of FcRH5 TDBs. The method was carried out as follows. Cultured SVT2 cells were lifted using non-enzyme cell dissociation buffer (Sigma, #C5914). 1×10⁵ cells were suspended in 100 μL and incubated with FcRH5 TDBs at 3 μg/ml. […] Cells were washed twice with FACS buffer before flow cytometry analysis was carried out on a FACSCalibur.
On the technique in general: A flow cytometer gives signals particle by particle.

In experiment [4] the target is T4, cynomolgus FcRH5 (full-length, on cells) (cynomolgus monkey).
T4 construct: also called SVT2-Cyno-FcRH5; cyno FcRH5
T4 chain: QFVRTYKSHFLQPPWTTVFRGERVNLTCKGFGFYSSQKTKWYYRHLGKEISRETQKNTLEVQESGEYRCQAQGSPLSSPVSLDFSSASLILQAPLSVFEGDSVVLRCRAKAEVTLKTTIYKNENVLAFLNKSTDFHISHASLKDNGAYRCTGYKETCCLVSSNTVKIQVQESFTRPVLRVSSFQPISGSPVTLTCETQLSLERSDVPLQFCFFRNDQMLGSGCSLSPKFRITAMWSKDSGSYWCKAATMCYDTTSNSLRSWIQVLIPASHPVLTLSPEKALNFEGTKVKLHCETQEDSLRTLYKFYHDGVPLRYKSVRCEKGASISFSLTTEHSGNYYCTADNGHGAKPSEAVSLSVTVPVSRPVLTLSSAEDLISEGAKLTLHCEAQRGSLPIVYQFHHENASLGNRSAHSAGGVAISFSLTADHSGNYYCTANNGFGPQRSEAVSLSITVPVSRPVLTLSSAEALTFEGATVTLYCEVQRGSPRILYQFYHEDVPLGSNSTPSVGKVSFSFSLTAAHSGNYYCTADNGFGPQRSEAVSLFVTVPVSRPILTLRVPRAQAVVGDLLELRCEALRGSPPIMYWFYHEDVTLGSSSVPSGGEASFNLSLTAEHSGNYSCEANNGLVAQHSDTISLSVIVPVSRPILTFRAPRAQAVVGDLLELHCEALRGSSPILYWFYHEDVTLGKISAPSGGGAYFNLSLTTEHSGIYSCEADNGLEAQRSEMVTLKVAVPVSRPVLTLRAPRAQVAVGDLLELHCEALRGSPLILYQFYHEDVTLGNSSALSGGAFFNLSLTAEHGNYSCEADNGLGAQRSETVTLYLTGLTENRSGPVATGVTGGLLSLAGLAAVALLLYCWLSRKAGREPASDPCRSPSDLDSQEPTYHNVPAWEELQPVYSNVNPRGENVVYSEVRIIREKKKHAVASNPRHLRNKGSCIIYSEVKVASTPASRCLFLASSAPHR
Nature of the experiment: FACS, SVT2 cells, 3 µg/ml. On the procedure: as §1

From patent publication US20240383984A1 (Genentech, published 2024) come the findings set out here.

B1: 15G8 (antibody, mouse IgG2a, V domains shown)
VH: EVQLQQSGPELVKPGASVKMSCKASGYTFTNYVIHWMKQKPGQGLEWIGYISPYNDYTKYNEKFEGKATLTSDKSSNTAYMELSSLTSEDSAVYYCARRDYYGSSDYWGQGTTLTVSS
VL: QIVLTQSPAIMSASPGEKVTMTCSASSSVDYMHWYQQKSGTSPKKWIYDTSKLASGVPARFSGSGSGTSYSLTIGSMEAEDAATYYCQQWSSNPPTFGGGTKLEIK
notes: mouse mAb, Campaign C; recombinant murine IgG2a for SPR; also called mAb 15G8
As for B1, the binding result in experiment [1] was “no binding”; in experiment [2], “binds”.

B2: hu1G7.v1.13.1/38E4.v1 TDB (bispecific antibody, V domains shown)
VH 1: EVQLVESGPGLVKPSETLSLTCTVSGFSLTRFGVHWVRQPPGKGLEWLGVIWRGGSTDYNAAFMSRLTISKDNSKNQVSLKLSSVTAADTAVYYCSNHYYGSSDYALDNWGQGTLVTVSS
VL 1: DIQMTQSPSSLSASVGDRVTITCKASQDVRNLVVWFQQKPGKAPKLLIYSGYYRYTGVPSRFSGSGSGTDFTLTISSLQPEDFATYYCQQHYQPPYTFGQGTKVEIK
VH 2: EVQLVQSGAEVKKPGASVKVSCKASGFTFTSYYIHWVRQAPGQGLEWIGWIYPENDNTKYNEKFKDRVTITADTSTSTAYLELSSLRSEDTAVYYCARDGYSRYYFDYWGQGTLVTVSS
VL 2: DIVMTQSPDSLAVSLGERATINCKSSQSLLNSRTRKNYLAWYQQKPGQSPKLLIYWTSTRKSGVPDRFSGSGSGTDFTLTISSLQAEDVAVYYCKQSFILRTFGQGTKVEIK
notes: knob-into-hole TDB; also called 1G7.v1.13.1 TDB
For the molecule B2, the binding result in experiment [3] and in experiment [4] was “binds” each time.

B3: hu1G7.v1.3/38E4.v1 TDB (bispecific antibody, V domains shown)
VH 1: EVQLVESGPGLVKPSETLSLTCTVSGFSLTRFGVHWVRQPPGKGLEWLGVIWRGGSTDYNAAFMSRLTISKDNSKNQVSLKLSSVTAADTAVYYCSNHYYGSSDYALDNWGQGTLVTVSS
VL 1: DIQMTQSPSSLSASVGDRVTITCKASQDVRNIVVWFQQKPGKAPKLLIYSGSYRYSGVPSRFSGSGSGTDFTLTISSLQPEDFATYYCQQQYSPPYTFGQGTKVEIK
VH 2: EVQLVQSGAEVKKPGASVKVSCKASGFTFTSYYIHWVRQAPGQGLEWIGWIYPENDNTKYNEKFKDRVTITADTSTSTAYLELSSLRSEDTAVYYCARDGYSRYYFDYWGQGTLVTVSS
VL 2: DIVMTQSPDSLAVSLGERATINCKSSQSLLNSRTRKNYLAWYQQKPGQSPKLLIYWTSTRKSGVPDRFSGSGSGTDFTLTISSLQAEDVAVYYCKQSFILRTFGQGTKVEIK
notes: knob-into-hole TDB; also called 1G7.v1.3 TDB
For B3, the binding result in experiment [3] and in experiment [4] was “binds” each time.

B4: hu1G7.v1.13/38E4.v1 TDB (bispecific antibody, V domains shown)
VH 1: EVQLVESGPGLVKPSETLSLTCTVSGFSLTRFGVHWVRQPPGKGLEWIGVIWRGGSTDYNAAFMSRLTISKDNSKNQVSLKLSSVTAADTAVYYCSNHYYGSSDYALDNWGQGTLVTVSS
VL 1: DIQMTQSPSSLSASVGDRVTITCKASQDVRNLVVWFQQKPGKAPKLLIYSGYYRYTGVPSRFSGSGSGTDFTLTISSLQPEDFATYYCQQHYQPPYTFGQGTKVEIK
VH 2: EVQLVQSGAEVKKPGASVKVSCKASGFTFTSYYIHWVRQAPGQGLEWIGWIYPENDNTKYNEKFKDRVTITADTSTSTAYLELSSLRSEDTAVYYCARDGYSRYYFDYWGQGTLVTVSS
VL 2: DIVMTQSPDSLAVSLGERATINCKSSQSLLNSRTRKNYLAWYQQKPGQSPKLLIYWTSTRKSGVPDRFSGSGSGTDFTLTISSLQAEDVAVYYCKQSFILRTFGQGTKVEIK
notes: knob-into-hole TDB; also called 1G7.v1.13 TDB
As to B4, the binding result in experiment [3] and in experiment [4] was “binds” throughout.

B5: hu1G7.v1.2/38E4.v1 TDB (bispecific antibody, V domains shown)
VH 1: EVQLVESGPGLVKPSETLSLTCTVSGFSLTRFGVHWVRQPPGKGLEWLGVIWRGGSTDYNAAFMSRLTISKDNSKNQVSLKLSSVTAADTAVYYCSNHYYGSSDYALDNWGQGTLVTVSS
VL 1: DIQMTQSPSSLSASVGDRVTITCKASQDVRNLVVWFQQKPGKAPKLLIYSGYNRYSGVPSRFSGSGSGTDFTLTISSLQPEDFATYYCQQQFQPPYTFGQGTKVEIK
VH 2: EVQLVQSGAEVKKPGASVKVSCKASGFTFTSYYIHWVRQAPGQGLEWIGWIYPENDNTKYNEKFKDRVTITADTSTSTAYLELSSLRSEDTAVYYCARDGYSRYYFDYWGQGTLVTVSS
VL 2: DIVMTQSPDSLAVSLGERATINCKSSQSLLNSRTRKNYLAWYQQKPGQSPKLLIYWTSTRKSGVPDRFSGSGSGTDFTLTISSLQAEDVAVYYCKQSFILRTFGQGTKVEIK
notes: knob-into-hole TDB; also called 1G7.v1.2 TDB
On to B5, for which the binding result in experiment [3] and in experiment [4] was “binds” throughout.

B6: hu1G7.v1.1/38E4.v1 TDB (bispecific antibody, V domains shown)
VH 1: EVQLVESGPGLVKPSETLSLTCTVSGFSLTRFGVHWVRQPPGKGLEWLGVIWRGGSTDYNAAFMSRLTISKDNSKNQVSLKLSSVTAADTAVYYCSNHYYGSSDYALDNWGQGTLVTVSS
VL 1: DIQMTQSPSSLSASVGDRVTITCKASQDVRNLVVWFQQKPGKAPKLLIYSGSYRYSGVPSRFSGSGSGTDFTLTISSLQPEDFATYYCQQQYSPPYTFGQGTKVEIK
VH 2: EVQLVQSGAEVKKPGASVKVSCKASGFTFTSYYIHWVRQAPGQGLEWIGWIYPENDNTKYNEKFKDRVTITADTSTSTAYLELSSLRSEDTAVYYCARDGYSRYYFDYWGQGTLVTVSS
VL 2: DIVMTQSPDSLAVSLGERATINCKSSQSLLNSRTRKNYLAWYQQKPGQSPKLLIYWTSTRKSGVPDRFSGSGSGTDFTLTISSLQAEDVAVYYCKQSFILRTFGQGTKVEIK
notes: knob-into-hole TDB; also called 1G7.v1.1 TDB
With B6, the binding result in experiment [3] and in experiment [4] was “binds” each time.

B7: 17B1 (antibody, mouse IgG2a, V domains shown)
VH: QVQLQQSGPELVRPGVSVKISCKGSGYTFTHYAMHWVKQSHTKSLEWIGMISSSSGNTNFNQKFMDKATMTVDKSSTTAYLELARLTFGDSAIYYCARWSYYALFDYWGQGTTVTVSS
VL: ENVLTQSPAIMSASPGEKVTMTCSADSSVDYIHWYQQKSNTSPKLWIYDTSKLASGVPGRFSGSGSGNSYSLTISSMEAEDFATYYCFQGSGYPLTFGSGTKLELK
notes: mouse mAb, Campaign C; recombinant murine IgG2a for SPR
Regarding B7, the binding result in experiment [1] is “no binding”; in experiment [2] it was “binds”.
